Results on 18 molecules are retold here after patent US20130245238A1 (Bristol-Myers Squibb, published 2013).

Sequences and labels used below:
T1: human PXR-GST (Invitrogen) (human, UniProt O75469 111-434, limits assumed)
T1 construct: Captured on an anti-GST antibody chip; the whole natural protein is named; also called GST-PXR; GST-tagged PXR; not shown: GST tag
T1 sequence (looked up): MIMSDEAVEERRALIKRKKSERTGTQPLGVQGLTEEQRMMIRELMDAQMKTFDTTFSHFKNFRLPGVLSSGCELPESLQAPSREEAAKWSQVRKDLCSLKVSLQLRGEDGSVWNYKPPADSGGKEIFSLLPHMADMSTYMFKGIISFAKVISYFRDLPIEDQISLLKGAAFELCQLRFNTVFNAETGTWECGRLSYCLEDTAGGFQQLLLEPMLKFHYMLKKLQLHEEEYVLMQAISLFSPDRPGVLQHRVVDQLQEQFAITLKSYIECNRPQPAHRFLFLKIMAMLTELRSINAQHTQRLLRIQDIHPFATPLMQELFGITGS

T2: biotinylated murine IL-17 (murine, UniProt Q62386 26-158, limits assumed, biotinylated (site not stated))
T2 construct: Used at 2.5 nM in the Alphascreen assay; also called interleukin 17
T2 sequence (looked up): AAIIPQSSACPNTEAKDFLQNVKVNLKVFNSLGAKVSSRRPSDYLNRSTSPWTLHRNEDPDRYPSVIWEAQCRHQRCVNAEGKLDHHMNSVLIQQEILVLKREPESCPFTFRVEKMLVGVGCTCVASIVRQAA

B1: scaffold region peptide of SEQ ID NO: 53 (peptide)
peptide: MGEVVAATPTSLLIS
notes: Synthetic peptide; also called wildtype scaffold region segment N-terminal to the BC loop
B2: BC loop peptide (SEQ ID NO: 58) (peptide)
peptide: PTSLLISWDAPAVTVRYYRITYG
notes: Synthetic peptide; also called BC loop region cluster
B3: scaffold region peptide of SEQ ID NO: 54 (peptide)
peptide: PHFPTRYYRITYGETGGNS
notes: Synthetic peptide from an engineered ^10Fn3 domain; also called modified scaffold region segment C-terminal to the BC loop
B4: Adnectin-7 (designed binder)
chain: MGVSDVPRDLEVVTATPTSLLISWDGPKYYVKYYRITYGETGGNSPVQEFTVPRTDHTATISGLKPGVDYTITVYAVKGQYGPYYGSRPISINYRTEIDKPSQHHHHHH
B5: Adnectin-3 (designed binder)
chain: MASTSGVSDVPRDLEVVAATPTSLLISWDAPAVPVSKYVIYYWPGALISSMQAFKVPGSKSTATISGLKPGVLYSIVVDALTGDGQGSYVWDPITITYRTEGSGSHHHHHH
B6: Adnectin-1 (designed binder)
chain: MASTSGSTHYYKGTADLEVVAATPTSLLISWPPPYYVEGVTVFRITYGETGGNSPVQEFTVPYWTETATISGLKPGVDYTITVYAEMYPGSPWAGQVMDIQPISINYRTEGSGSHHHHHH
notes: Isolated from an NP1 library; purified by Ni-agarose
B7: Adnectin-4 (designed binder)
chain: MASTSGVSDVPRDLEVVAATPTSLLISWDAPAVTVHSYYITYQELQHHSVPQGFQVPGSKSTATISGLKPGVAYQIAVYAFTGPGLPPSDAPPIVIYYRTEGSGSHHHHHH
B8: Adnectin-8 (designed binder)
chain: MGVSDVPRDLEVVAATPTSLLISWSQPGRYVKYYRITYGETGGNSPVQEFTVPNDTYTATISGLKPGVDYTITVYAVYGKYGPYYGYDPISINYRTEIDKPSQHHHHHH
B9: Adnectin-6 (designed binder)
chain: MGVSDVPRDLEVVAATPTSLLISWSRPKGSIKYYRITYGETGGNSPVQEFTVPNSQYTATISGLKPGVDYTITVYAVYGYPYQEPHYYPISINYRTEIDKPSQHHHHHH
B10: Adnectin-5 (designed binder)
chain: MGVSDVPRDLEVVAATPTSLLISWKYPYETISYYRITYGETGGNSPVQEFTVPYYRSTATISGLKPGVDYTITVYAVEASAPYSDGGSPISINYRTEIDKPSQHHHHHH
B11: Adnectin-2 (designed binder)
chain: MASTSGVSDVPRDLEVVAATPTSLLISWDAPAVTVNNYRITYQPLLQGSSIQHFDVPGSKSTATISGLKPGVGYQITVYASTYTHSKAYYSLPISIYYRTEGSGSHHHHHH
B12: non-binding control ^10Fn3 molecule (SEQ ID NO: 6 with an additional MG at the N-terminus and RGD changed to RGE) (designed binder)
chain: MGVSDVPRDLEVVAATPTSLLISWDAPAVTVRYYRITYGETGGNSPVQEFTVPGSKSTATISGLKPGVDYTITVYAVTGRGESPASSKPISINYRT
B13: WS-LI1 binder having the sequence of SEQ ID NO: 45 (designed binder)
chain: MGVSDVPRDLEVVAATPTSLLISWDAPAVTVRYYRITYGEYHAFFASNGKYYFYIQEFTVPGSKSTATISGLKPGVDYTITVYAVTDDTVHHGDSNYHSSKPISINYRTEIDKPSQ
notes: Modified ^10Fn3 domain (CD and FG loops)
B14: WS-LI1 binder having the sequence of SEQ ID NO: 46 (designed binder)
chain: MGVSDVPRDLEVVAATPTSLLISWDAPAVTVRYYRITYGEYSSFFQHQGQYYHYIQEFTVPGSKSTATISGLKPGVDYTITVYAVTQHEHSQDSSKPISINYRTEIDKPSQ
notes: as for B13
B15: WS-LI1 binder having the sequence of SEQ ID NO: 47 (designed binder)
chain: MGVSDVPRDLEVVAATPTSLLISWDAPAVTVRYYRITYGEFSQFVHSDGEYYQEYQEFTVPGSKSTATISGLKPGVDYTITVYAVTGQYDQDDEPSSKPISINYRTEIDKPSQ
notes: as for B13
B16: WS-LI1 binder having the sequence of SEQ ID NO: 3 (designed binder)
chain: MGVSDVPRDLEVVAATPTSLLISWDAPAVTVRYYRITYGEQHSKYPHQEFTVPGSKSTATISGLKPGVDYTITVYAVTIQPQDPEQDYQYHYYETSSKPISINYRTEIDKPSQ
notes: as for B13
B17: WS-LI1 binder having the sequence of SEQ ID NO: 4 (designed binder)
chain: MGVSDVPRDLEVVAATPTSLLISWDAPAVTVRYYRITYGEHVADHFDHNQEFTVPGSKSTATISGLKPGVDYTITVYAVTYQFQDPEEHYYYHFYDSSSKPISINYRTEIDKPSQ
notes: as for B13
B18: WS-LI1 binder having the sequence of SEQ ID NO: 5 (designed binder)
chain: MGVSDVPRDLEVVAATPTSLLISWDAPAVTVRYYRITYGEYHEHYHSPGFSQKYHYEQEFTVPGSKSTATISGLKPGVDYTITVYAVTGHKHYHYYYYYHHHSSKPISINYRTEIDKPSQ
notes: as for B13

Usually IC50 stands for the midpoint of a concentration-inhibition curve. A lower IC50 goes with inhibition by little substance. The term Kd denotes the constant that tells how readily two partners part at equilibrium. The low end stands for a tighter complex, the high end for a looser complex. What is called koff is the first-order rate constant of dissociation. Low readings indicate slow dissociation, high ones fast dissociation. Usually kon stands for the second-order rate constant of association. Low values mean slow association, high ones fast association.

Bounds are passed on as bounds.

The first assay deals with HLA allele molecule DRB*0101 (human). Description: HLA class II competition binding assay: inhibition of the europium-labeled control peptide, time-resolved fluorescence.
With B1, the IC50 came out at 6000 nM.

The next assay addresses HLA allele molecule DRB*1501 (human). Described as above.
In turn, B1 showed an IC50 of less than 100 nM.
In turn, B2 had an IC50 of less than 1000 nM.
Same read-out and setting: the same measure for B3: 50000 nM.

For a further assay, the target named is T1, human PXR-GST (Invitrogen). As to the kind of experiment: SPR, Biacore T100; human PXR-GST captured on anti-GST antibody chip.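 Further: binding rate constants and Kd derived from kinetic cycles using the Biacore T100 analysis software.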
As to B4, the Kd amounted to 0.31 nM, the koff stood at 8.82e-05 s⁻¹ and the kon is 288000 M⁻¹ s⁻¹.
B5 gave a Kd of 2.5 nM, a koff of 0.000378 s⁻¹ and a kon of 162000 M⁻¹ s⁻¹.
In the same order, the values of B6 are 11.4 nM, 0.00119 s⁻¹ and 104000 M⁻¹ s⁻¹.
Take B7: binding was characterised by a dissociation constant (Kd) of 7.8 nM, the koff is 0.000168 s⁻¹ and the kon worked out at 21500 M⁻¹ s⁻¹.
On to B8, for which binding was characterised by a dissociation constant (Kd) of 4.4 nM, the koff came out at 0.000182 s⁻¹ and the on-rate (kon) worked out at 41700 M⁻¹ s⁻¹.
The matching figures for B9: 1.9 nM, 0.00126 s⁻¹ and 680000 M⁻¹ s⁻¹.
In the same order, the values of B10 are 5.4 nM, 0.0027 s⁻¹ and 509000 M⁻¹ s⁻¹.
For the molecule B11, the Kd was found to be 97.8 nM, the off-rate (koff) came to 0.00458 s⁻¹ and the on-rate constant (kon) is approximately 46800 M⁻¹ s⁻¹.

Another assay deals with T3, Recombinant human integrin αVβ3 (R&D Systems) (human, UniProt P06756 31-992; P05106 27-718).
T3 construct: Amine-coupled on a CM7 chip; also called integrin AlphaV-Beta3
As to the kind of experiment: SPR (Biacore), integrin amine-coupled to a CM7 chip, binding RU at the end of the injection.
Consider B12, for which the binding result is recorded as “no binding (tested: 5 µM)”.

The target in another assay is T2, biotinylated murine IL-17. As to the kind of experiment: competitive Alphascreen; 1 µM binder, biotinylated murine IL-17 against murine IL-17RA-Fc. In general terms: Bead proximity is the source of the signal in Alpha formats.
In the case of B13, the “% inhibition of the Alphascreen signal” value is 83%.
The same measure, in the same setting: the result for B14 reads 94%; that for B15, 81%.

The target of the next assay is T4, murine DLL4 (murine, UniProt Q9JI71 28-525, limits assumed).
T4 construct: Soluble protein used at 20 nM; construct and source are not described; also called delta-like protein 4
As to the kind of experiment: competitive Biacore; 2 µM binder equilibrated with 20 nM murine DLL4, flowed over immobilised Notch1-Fc.
For the molecule B16, the “% competition of the interaction between Notch1 and murine DLL4” value is 100%.
Still for that read-out and setting: the same measure for B17: 100%; for B18: 75%.
